Reference: patent publication US7268216B2, “Chimeric avidin mutants” (Licentia Oy, priority 2004, dated 2007)
Substitutions are numbered along the chain they refer to. Numbers in names are those of the source. Where two headings read alike, the source gives them in different places. Marks after values point to notes of the source that are not given here.

B1: ChiAVD: Chimeric avidin: residues 38-58 moved from AVR4/5 to avidin (SEQ ID NO:15) (protein, listed as Gallus gallus)
chain: MVHATSPLLLLLLLSLALVAPGLSARKCSLTGKWTNDLGSNMTIGAVNSRGEFTGTYITAVADNPGNITLSPLLGIQHKRASQPTFGFTVNWKFSESTTVFTGQCFIDRNGKEVLKTMWLLRSSVNDIGDDWKATRVGINIFTRLRTQKE
B2: ChiAVD(I117Y): Residues 38-58 moved from AVR4/5 to avidin and mutation I117Y in 1-3 subunit interface (SEQ ID NO:16) (protein, listed as Gallus gallus)
chain: B1 chain with I139Y
B3: AVR4/5: Avidin-related protein encoded identically by chicken genes AVR4 and AVR5 (protein, UniProt P56734 25-150, looked up)
Avidin-related protein 4/5: ARKCSLTGKWTNNLGSIMTIRAVNSRGEFTGTYLTAVADNPGNITLSPLLGIQHKRASQPTFGFTVHWNFSESTTVFTGQCFIDRNGKEVLKTMWLLRSSVNDISYDWKATRVGYNNFTRLCTVEE
B4: AVR4/5(C122S)-b: AVR4/5(C122S) produced in E. coli, non-glycosylated, three additional N-terminal residues (Gln-Thr-Val) (protein, UniProt P56734 25-150, looked up, variant C122S)
Avidin-related protein 4/5: B3 Avidin-related protein 4/5 with C122S
modifications: N-terminal Gln-Thr-Val extension
B5: AVR4/5(C122S): AVR4/5 with the cysteine forming intermonomeric disulphide bridges mutated to serine; insect cell produced (protein, UniProt P56734 25-150, looked up, variant C122S)
Avidin-related protein 4/5: B3 Avidin-related protein 4/5 with C122S

What was measured:
[1] = Fluorescent biotin dissociation assay; assay type: binding
Procedure: The binding of labelled biotin to avidins was analysed by a method based on the quenching of a biotin-coupled fluorescent probe ArcDia BF560 (ArcDia Ltd., Turku, Finland) due to binding to avidin, as previously described (18). The measurements were performed using a PerkinElmer LS55 luminometer with thermostated cuvette (25 or 50° C.). The signal measured for 3600 sec (25° C.) or 2400 sec (50° C.) was used to determine the dissociation rate constant.

[2] = Radiobiotin dissociation assay; assay type: binding; details: [3H]biotin, various temperatures
Procedure: The dissociation rate of [3H]biotin from avidin, AVR4/5 and the avidin mutants was determined as described in (20) at various temperatures. The activation thermodynamic parameters for AVR4/5(C122S) and avidin were determined by analysis of the dependence of the dissociation rate upon temperature using the global fit of all data, as described in (21).

[3] = IAsys optical biosensor (SPR), 2-iminobiotin binding; details: 2-iminobiotin surface, 20° C., 50 mM borate buffer pH 9.5, 1 M NaCl
Procedure: The biotin-binding characteristics of the different avidins were studied by a surface plasmon resonance (SPR) optical biosensor (IAsys). The binding affinities to the 2-iminobiotin surface in 50 mM borate buffer (pH 9.5, 1 M NaCl) were measured as previously reported (7).

[4] = Differential scanning calorimetry (DSC), heat denaturation; assay type: physicochemical; details: for ΔTm, change in Tm upon addition of a three-fold molar excess of biotin / Tm(+biotin) / ΔH (unfolding enthalpy) / Tm(−biotin): DSC; for Tm(+biotin): biotin 3:1 molar ratio biotin:avidin monomer; for ΔH (unfolding enthalpy): sample without biotin; for Tm(−biotin): without biotin, average ± S.D
Procedure: The transition midpoint of the heat denaturation (Tm) of the avidin proteins was studied using a Calorimetry Sciences Corporation (CSC) Nano II differential scanning calorimeter, as in previous reports (22,23). Proteins (˜0.5 mg/ml) were analyzed both in the absence and presence of biotin (3:1 molar ratio; biotin:avidin monomer).

[5] = Microplate assay: remaining biotin-binding activity after heat treatment; assay type: physicochemical; details: 50 mM phosphate buffer, 100 mM NaCl, pH 7.0
Procedure: The inactivation of the proteins during heat-treatment was analysed by using a microplate assay (23). The proteins were heated to 99.9° C. in 50 mM phosphate buffer containing 100 mM NaCl (pH 7.0) for 32 minutes. The remaining activity was probed by measuring the ability of the proteins to bind biotinylated alkaline phosphatase by coating the microplate wells with samples of the heated proteins.

[6] = system: Proteinase K; experiment: Proteinase K assay (proteolytic resistance, SDS-PAGE); assay type: physicochemical; details: for state after incubation with Proteinase K: 16 hours, in the presence or absence of biotin
Procedure: The proteolytic resistance of the proteins were studied using proteolysis by Proteinase K, as previously described (7). Protein sample (4 μg) was incubated in the presence of Proteinase K ( 1/25 w/w) at 37° C. for a predetermined time period, denatured by boiling in sample buffer (SDS, 2-mercaptoethanol) and subjected to SDS-PAGE followed by coomassie staining.

[7] = cited from earlier work
[8] = system: Proteinase K; details: even without bound biotin; refs (8,32); cited from earlier work
[9] = recombinant protein, earlier report; cited from earlier work

Molecule	Release 1 h (total release of the probe) ([1]; 25° C.) [%]	kdiss, dissociation rate constant ([1]; 25° C.)	Release 1 h (total release of the probe) ([1]; 50° C.) [%]	kdiss, dissociation rate constant ([1]; 50° C.)	biotin binding / dissociation rate in radiobiotin dissociation assay [2]	kass, association rate constant [3]	Tm, transition midpoint of heat denaturation [4] [°C]	ΔTm, change in Tm upon addition of a three-fold molar excess of biotin [4] [°C]	Tm(+biotin) [4]	ΔH (unfolding enthalpy) [4] [kcal/mol]	Tm(−biotin) [4] [°C]	Activity: biotin-binding activity after 32 min treatment at 99.9° C. [5] [%]	state after incubation with Proteinase K [6]	further results
B1	13.1	1.76 10^−5 s^−1	93.9	8.00 10^−4 s^−1	resembled AVR4/5(C122S)	(1.7 ± 0.1) × 10^4 M^−1s^−1	96.5	27.9	124.4 ± 0.2 °C	126 ± 2.39	96.5 ± 0.2	47	remaining intact	–
B2	9.5	1.94 10^−5 s^−1	94.8	7.33 10^−4 s^−1	resembled AVR4/5(C122S)	(1.6 ± 0.2) × 10^4 M^−1s^−1	111.1	~19	~130^d ° C.	158 ± 9.08	111.1 ± 0.2	98	remaining intact	–
B3	–	–	–	–	almost as tightly as avidin	–	–	–	–	–	–	–	–	Tm, transition midpoint of heat denaturation ([7]; from ref (8)): 106.4 °C; resistance to cleavage by Proteinase K [8]: resistant to cleavage; biotin binding [9]: almost as tightly as avidin
B4	10.9	2.31 10^−5 s^−1	88.3	6.20 10^−4 s^−1	slightly slower dissociation rate	–	–	17.2	127.1 °C	110	109.9	56	remaining intact	–
B5	12.5	2.77 10^−5 s^−1	93.7	7.88 10^−4 s^−1	tight biotin binding	(9.3 ± 0.4) × 10^3 M^−1s^−1	–	–	–	–	–	72	–	ΔH (unfolding enthalpy) ([7]; DSC, sample without biotin, results from ref (8)): 137 ± 7.89 kcal/mol; Tm(+biotin) ([7]; DSC, with biotin, results from ref (8)): 125.4 ± 0.8 °C; Tm(−biotin) ([7]; DSC, without biotin, results from ref (8)): 106.4 ± 0.8 °C; ΔTm, change in Tm upon addition of a three-fold molar excess of biotin ([7]; DSC, results from ref (8)): 19.5 °C; resistance to the proteolytic activity of Proteinase K ([6]; even without biotin): total resistance
